This is an account of results in the nanobody polyreactivity screen of Harvey et al. (2022).

The data set can be described thus: yeast display, Sf9 membrane polyspecificity reagent, FACS + sequencing; frameworks hold sequencing errors. In a few lines: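 Nanobodies came from a synthetic yeast display library in Saccharomyces cerevisiae BJ5465, induced with galactose for 36–48 hours and stained for 1 hour at 4 °C with 10% biotinylated, detergent-solubilized Sf9 membrane reagent. Cells were enriched on streptavidin microbeads and then FACS-sorted, with low and high (top ~1%) gates set on anti-HA fluorescence for expression and streptavidin fluorescence for reagent binding. Each polyreactivity label reflects the gate a clone came from. Genes were amplified by colony PCR, sequenced by MiSeq 2 × 250 and filtered by CDR length.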
For the sequence “QVHLVETGGGLVQAGGSLRISCAASGFTFSRYAMVWYRQAPGKERELVAAITSRGGSTYYADSVKGRFTISRDNAKNTVYLQMNSLKPEDTAFYYCAASGRNRKDGLYEYYYWGQGTQVTVSS”, the “polyreactivity (PSR sort gate)” value is listed as “high polyreactivity”.

Turning to “QVHLVETVRGLLQAGGSLRISCAASGRSFKRYAMGWYRQAPGKERELVAAITRSGGSTYYADSVKGRFTISRDNAKNTVYLQMNSLKPEDTAVYYCATRSYNNELEYWGQGSQVTVSS”, the “polyreactivity (PSR sort gate)” value was “high polyreactivity”.

On to “QVHLVVSGGGLVQAGGSLRLSCAASGLTIWYYAMGWYRQAPGKESEFVAAITSRGGDTYYADSVKGRFTISRDNAKNTVYLQMNSLKPEDTAVYYCAVRPRYYGTYRYYYWGQGTQVTVSS”, for which the “polyreactivity (PSR sort gate)” value is “high polyreactivity”.

For “QVHSVESGGGLVQAGGSLRLSCSASGIIFYSYAMGWYRQAPGKERELVAGITIVGSTIYADSVKGRFTISRDNPKTTVYLQMISLKAEATAVYYCNKADLHFIEMDYWGQATQVTVSS”, the “polyreactivity (PSR sort gate)” value is recorded as “low polyreactivity”.

Consider “QVHVVESGGGLVQAGVSLLLSCAASGRTFYRNAMGWYRQAPGKERELVAAISSRGGSTYYADSVKGRFTISRDNAKNTVYLQMNSLKPEDTAVYYCAANYGYGGDYDYWVQGTQVTVSS”, for which the “polyreactivity (PSR sort gate)” value is given as “high polyreactivity”.

On to “QVKLEESGGGLVQAGGSLRLSCAASGSTFRAYTMGWYRQAPAKEREFVAAISRSGGSTFYADSVKGRFTISRDYAKNTVYLQMNSLKPEDNAVYYCAASYRYSASYYWGEGTQVTVSS”, for which the “polyreactivity (PSR sort gate)” value is recorded as “high polyreactivity”.

Consider “QVKLEESGGRLVQAGGTLRLRCAASGIIYRFYTIGWYRQAPGKERELVAAIRSGGRTYYADSVKGRFTISRDNAKNTVYLQINSLKPEDSAVYYCAKEPSRYSRYNYWGQGTQVTVSS”, for which the “polyreactivity (PSR sort gate)” value is recorded as “high polyreactivity”.

Consider “QVKLGESGGGLVQAGGSLRLSCAASGSILEFNAKGWYRQAPGKERELVAGITRDGGTTYADSVKGRFTISRDNAKNNVYFQMNSLKPEDNAVYYCAGTYYFSRWDLYGYWGHGTQVTVSS”, for which the “polyreactivity (PSR sort gate)” value is on record as “low polyreactivity”.

As to “QVKLKESVGGLVQAGGSLRLSCAASGSISATGNMGWYRQAPGEERELVAAINFGSNTYYADSVKGRFTISRDNAKNTVYLQKSGLKPEDTAVYYCAVDGWYVGPYYYWGQGTQVTVSS”, the “polyreactivity (PSR sort gate)” value is “high polyreactivity”.

Turning to “QVKLQESGGGLVQAGGSLRLSCAASGYIFLHYYMGWYRQAPGKEREFVAGITSGTNTNYADSVKGRFTIRDNAKNTVYLQMNSLKPEDTAVCYCAVTYPYWGDYTYWGQGTQVTVSS”, the “polyreactivity (PSR sort gate)” value was “low polyreactivity”.

In the case of “QVKLVDSGGGLVQAGGILRLSCAASGRIFSDYAMGWYRQAPGKERELVATITSGDSTNYADSVKGRFTISRDNAKNTVYLQMNSLKPEDTAVYYCNADRVYVRGRFTYDYWGQGTQVTVSS”, the “polyreactivity (PSR sort gate)” value is given as “low polyreactivity”.

“QVKLVDSGGGLVQAGGSLRISCAASGRIFGRYTMGWYRQAPGKERELVAGITYSGGSTYYADSVKGRFTISRDNAKNTVYLQMNSLKPEDTAVYYCAARLSGSGGFDYWGQGTQVTVSS”: the “polyreactivity (PSR sort gate)” value was “high polyreactivity”.

As for “QVKLVDSGGGLVQAGGSLRISCGASGRTFYGYDMGWYRQAPGKERELVAAINWRGVRTYYADSVKGRFTISRDNAKNTDYLEMNCLKPEDTAVYYCGVYNHWVYGNDYWGQGTQVTVSS”, the “polyreactivity (PSR sort gate)” value is “high polyreactivity”.

In the case of “QVKLVDSGGGLVQAGGSLRLSCAASGRIAVNAMGWYRQAPGKERELVAAISVSGGSTNYADSVKGRFTISRDNAKNTVYLQMNSLKPEDTAVYYCAARAFDPILRNDYSGQGTQVTVSS”, the “polyreactivity (PSR sort gate)” value is “low polyreactivity”.

In the case of “QVKLVDSGGGLVQAGGSLRLSCAASGRIIRINAMGWYRQAPGKERELVAAITRGGTTYADSVKGRFTISRDNAKNTVYLQMNSLKPEDTAVYYCNARTGRSPTGFRYWGQGTQVTVSS”, the “polyreactivity (PSR sort gate)” value is listed as “high polyreactivity”.

Take “QVKLVESAGGLVQARGSLRLSCAGSGITFVRNAMGWYRQAPGKERELVAAISSGGSTYYADSVKGRFTISRDNAKNTVYLQMNSLKPEDTAVYYCNAQIYGRLYRYRWHFYWGQGTQVTVSS”: the “polyreactivity (PSR sort gate)” value is given as “high polyreactivity”.

As to “QVKLVESGAGLVHAGGSLRLSCAASGFIFFYYAMGRYRQAPGKERYLVATISANGGNTYYADSVKGRFTISRDNAKNTVYLQMNRLKPEDTAVYYCARYTWYLRDWQWYYWGDEDYWGQGTQVTVSS”, the “polyreactivity (PSR sort gate)” value is given as “high polyreactivity”.

Regarding “QVKLVESGGCLVQAGCSLSLSCAASGRTFVTYAMGWYRQAPGKEREFVAAISWSGVSTYYADSVKGRFTISRDNAKNTVYLQMNSLKPEDTAVYYCAAKRVRALYGGSEGGYWGQGTQVTVSS”, the “polyreactivity (PSR sort gate)” value is listed as “low polyreactivity”.

“QVKLVESGGGIVQAGGSLRLSCAASGIIFARNAMGCYRQAPGKERELVAGINGGRKNYADSVKGSFTISRDNAKNTVYLQMNSLKPEDSAVYYCAARNKGTLYRYGYWGQGTQVTVSS”: the “polyreactivity (PSR sort gate)” value is recorded as “high polyreactivity”.

Turning to “QVKLVESGGGLVHAGGSLRLSCAASGFIFYYYAMGWYRQAPGKERELVAAITSSGGSTYYADSVKGRFTISRDNAKNTVYLQMNSLKPEDTAVYYCNARYVSASRNRGTSRYDYWGQGTQVTVSS”, the “polyreactivity (PSR sort gate)” value was “high polyreactivity”.

In the case of “QVKLVESGGGLVKAGGILRLSCAASGRTFRRNAMGWYRQPPGKESELVAAISSSGGSTYYADSVKGRFTISRDNAKNTVYLQMNSLKPEDTAVYYCNAYRYYVYDTYDGHGYWGQGTQVTVSS”, the “polyreactivity (PSR sort gate)” value is “high polyreactivity”.

Consider “QVKLVESGGGLVQAGASLRLSVAASGNIFSVNTIGTYRQAPGKERELVAAITRRSGRTYYADSVKGRFTISRDNAKNTVFLQMNSLNPEDTAVYYCAASWRGASVIRFDYWGQGTQVTVSS”, for which the “polyreactivity (PSR sort gate)” value is “high polyreactivity”.

In the case of “QVKLVESGGGLVQAGGSHRLSCAASGSIFGDYVMGSYRQAPGKEMELVAAINRGGSTYYADSVKGRFTISRDNAKNTVYLQMNSLKPADTAVYYCAAGYPSWYYGYPYDSWGQGTQVTVSS”, the “polyreactivity (PSR sort gate)” value was “low polyreactivity”.

For the sequence “QVKLVESGGGLVQAGGSLRLICAASGMTFVIYAMGWYRQAPGKERELVARNTWSGGSTYYADSEKGRFTISRDNSKNTVYLQMNSLNPEDSAVYYCAARRFYYYTAGYDYWGQGTQVTVSS”, the “polyreactivity (PSR sort gate)” value was “low polyreactivity”.

“QVKLVESGGGLVQAGGSLRLSCAASGFIFIDNTMGWYRQEPGKERELVAGINTSGASTHYADSVKGRFTISRDYAKNTVYLQMNSLKPEDTAVYYCNRGDLPKADYNDYSYDYDYRGQGTQVTVSS”: the “polyreactivity (PSR sort gate)” value was “low polyreactivity”.

For the sequence “QVKLVESGGGLVQAGGSLRLSCAASGFIFKANAMGWYRQAPGKETELVAAITWRDGNTNYADSVKGRFTISRDNAKNTVYLQMNSLKPEDTAGYYCAVRLLADDGYPAVVGDDYWGQGTQVTVSS”, the “polyreactivity (PSR sort gate)” value is on record as “low polyreactivity”.

In the case of “QVKLVESGGGLVQAGGSLRLSCAASGFIFLLYDMGWYRQAPGKERELVAANTSDGTTNYADSVKGRFTISRDNAKNTVYLQMNSLKPEDTAVYYCAADDEPYVYEVTAYLGYEYWGQGTQVTVSS”, the “polyreactivity (PSR sort gate)” value is on record as “high polyreactivity”.

Take “QVKLVESGGGLVQAGGSLRLSCAASGFTFEEYAMGCYRQSPGKERELVAAISASGGRTYYADSVKRRFTISRDNAKNTVYLQMNSLKPEDTAVYYCAAGYRGRRIMDYWGQGTQVTVSS”: the “polyreactivity (PSR sort gate)” value is reported as “high polyreactivity”.

On to “QVKLVESGGGLVQAGGSLRLSCAASGFTFEYYAMGWYRQAPGKERELVAAIRSDSGTNYADSVKGRFTISRDNAKNTVYLQMNSLKPEDTAVYYCAAPTVVLIDYDYWGQGTQVTVSS”, for which the “polyreactivity (PSR sort gate)” value is on record as “low polyreactivity”.

For the sequence “QVKLVESGGGLVQAGGSLRLSCAASGFTFSRNTMGWYRQAPGKERELVATISFRGGTTYYADSVKGRFTISRDNAKNTVYLQMNSLKPEDTAVYYCAVKVGFVRLLYHYYYWGQGTQVTVSS”, the “polyreactivity (PSR sort gate)” value was “high polyreactivity”.

With “QVKLVESGGGLVQAGGSLRLSCAASGFTYSANTMGWSRQAPGKERELVAAITRGGRPYYADSVKGRFTISRDNAKNTVYFQMNSLKPEDTAVYYCAKRATWYTVPREGYWGQGTQVTVSS”, the “polyreactivity (PSR sort gate)” value was “high polyreactivity”.

For “QVKLVESGGGLVQAGGSLRLSCAASGGTFQPNARGWNRQAPGKERELVAAISWSDGSTYYADSVKGRFTISRDNAKNTVYLQMNSLKPEDTAVYYCAADFTYYDSPYRDYNYESWGQGTQVTVSS”, the “polyreactivity (PSR sort gate)” value was “low polyreactivity”.

Turning to “QVKLVESGGGLVQAGGSLRLSCAASGIIFQYYAMGWYRQAPGKESELVAAISWSGGSTYYADSVKGRFTISRDNAKNTVYLQMNSLKPEDTAVYYCAARSRSYWPYEGYYWGQGTQVTVSS”, the “polyreactivity (PSR sort gate)” value is “low polyreactivity”.

With “QVKLVESGGGLVQAGGSLRLSCAASGIIFYRYAMGWYRQAPGKERELVAAISGRTGRTYYADSVKGRFTISRDNAKNTVYLQMNSLKPEDTAVYYCAADYYHYRYQTRLDYWGQGTQVTVSS”, the “polyreactivity (PSR sort gate)” value is “high polyreactivity”.

With “QVKLVESGGGLVQAGGSLRLSCAASGITIRFNAMGWYRQAPGKERELVPAITSSGGRTYYADSVKVRFTISRDNAKNTVYLQMNSLKPEDTAVYYCAAYYRYSTTEDRSVYRGYYYWGQGTQVTVSS”, the “polyreactivity (PSR sort gate)” value is recorded as “high polyreactivity”.

With “QVKLVESGGGLVQAGGSLRLSCAASGLIFQNYAMVWYRQAPGKERELVAAISRRGGRTNYADSVKGRFTISRDNAKNNVYLQMKSLKPEDTAVYYCNAKARQSYYYRFDYWGQGTQVTVSS”, the “polyreactivity (PSR sort gate)” value was “high polyreactivity”.

For “QVKLVESGGGLVQAGGSLRLSCAASGLTLQWYALGWYRQAHGKERDLVAAISYNGGDTYYADSVKGRFTISRDNAKNTVYLQMNSLKPEDTAVYYCAAYWYVGVNYSQRRDYWGQGTQVTVSS”, the “polyreactivity (PSR sort gate)” value is recorded as “low polyreactivity”.

As for “QVKLVESGGGLVQAGGSLRLSCAASGNTFGGYAMGWYRQAPGKERELVAAISSSGGSTYYADSVKGRFTISRDNAKNTVYLQMNSLKPEDTAVYYCAAYGGFYGYWTMGYWGQGTQVTVSS”, the “polyreactivity (PSR sort gate)” value is listed as “high polyreactivity”.

As to “QVKLVESGGGLVQAGGSLRLSCAASGRIFGYNAMGWYRQAPGKERELVAAISRSGGTTYYADSVKGRFTISRDNSKNTVNLQMNRLKPEDTEVYYCAAYYRTRVPYDMDYWGQGTQVTVSS”, the “polyreactivity (PSR sort gate)” value is “high polyreactivity”.

As to “QVKLVESGGGLVQAGGSLRLSCAASGRIFQPYAMGWYRQAPGKERELVADITYRDGSTYFADSVKGRFTISRDNAKNTVYLQMNSLKPEDTAVYYCNADGEYAKDDWFHWYDYWGQGTQVTVSS”, the “polyreactivity (PSR sort gate)” value is “high polyreactivity”.
